B1: RNase B: bovine pancreatic ribonuclease B, glycoprotein acceptor substrate (protein, UniProt P61823 27-150, looked up)
Ribonuclease pancreatic: KETAAAKFERQHMDSSTSAASSSNYCNQMMKSRNLTKDRCKPVNTFVHESLADVQAVCSQKNVACKNGQTNCYQSYSTMSITDCRETGSSKYPNCAYKTTQANKHIIVACEGNPYVPVHFDASV
modifications: glycoform B
notes: bovine pancreatic ribonuclease B, glycoprotein acceptor substrate
B2: acid phosphatase: yeast acid phosphatase purified from S. cerevisiae DT111, with asparagine-linked [GlcNAc]2-(Man)9 glycans; UGGT acceptor substrate (protein)
chain: GTIPLGKLADVDKIGTQKDIFPFLGGAGPYYSFPGDYGISRDLPEGCEMKQLQMVGRHGERYPTVSLAKTIKSTWYKLSNYTRQFNGSLSFLNDDYEFFIRDDDDLEMETTFANSDDVLNPYTGEMNAKRHARDFLAQYGYMVENQTSFAVFTSNSKRCHDTAQYFIDGLGDQFNITLQTVSEAESAGANTLSACNSCPAWDYDANDDIVNEYDTTYLDDIAKRLNKENKGLNLTSTDASTLFSWCAFEVNAKGYSDVCDIFTKDELVHYSYYQDLHTYYHEGPGYDIIKSVGSNLFNASVKLLKQSEIQDQKVWLSFTHDTDILNFLTTAGIIDDKNNLTAEYVPFMGNTFHRSWYVPQGARVYTEKFQCSNDTYVRYVINDAVVPIETCSTGPGFSCEINDFYDYAEKRVAGTDFLKVCNVSSVSNSTELTFYWDWNTTHYNASLLRQ

Tests used:
RUGT [1] = molecular target: T1, RUGT (Rattus norvegicus, UniProt Q9JLA3); assay: Glucosyltransferase assay: incorporation of 3H-glucose in glycoprotein acceptor-substrates by RUGT; assay type: biochemical; details: for RUGT activity towards denatured versus native substrate: reduced unfolded, heat-treated or urea-treated versus native protein
T1 construct: honeybee melittin signal peptide (21 aa, replaces the first 18 aa of RUGT) (N, cleaved yes); made in house; host or cells: Sf9 insect cells, baculovirus (pFastBac1); purified from culture medium
Description: Acid phosphatase was the major substrate glycoprotein used to determine RUGT activity in this study. RNase B was prepared as described elsewhere (Zapun, 1998). Soybean agglutinin (Sigma) was denatured by heating at 100° C. for 15 minutes. Bovine thyroglobulin (Sigma) was denatured with 8M urea and dialyzed against ddH2O. […] Amersham Life Science Inc.) and incubated at 37° C. for 2 hours. Reactions were either analyzed by SDS-PAGE followed by fluorography using Amplify (Amersham Life Science Inc.) or precipitated with ice-cold 10% trichloroacetic acid (TCA), washed twice with TCA and the pellets resuspended in 50 μl 1M Tris-HCl pH 8.0 before counting in a beta counter to quantitate the incorporation of ^3H-glucose in acid phosphatase.

acid phosphatase = assay: Glucosylation of purified acid phosphatase by wild-type and mutant RUGT; assay type: biochemical, Saccharomyces cerevisiae; details: purified acid phosphatase as substrate
Description: Based on sequence alignments with other nucleoside diphosphate glycosyltransferases, four independent RUGT mutants D1334A, D1336A, Q1429A and N1433A were designed, amplified by PCR, cloned and sequenced to confirm the presence of diagnostic PstI, BsrBI, XbaI and NaeI sites respectively (FIG. 8).
Acid phosphatase was the major substrate glycoprotein used to determine RUGT activity in this study. RNase B was prepared as described elsewhere (Zapun, 1998). Soybean agglutinin (Sigma) was denatured by heating at 100° C. for 15 minutes. Bovine thyroglobulin (Sigma) was denatured with 8M urea and dialyzed against ddH2O. […] Reactions were either analyzed by SDS-PAGE followed by fluorography using Amplify (Amersham Life Science Inc.) or precipitated with ice-cold 10% trichloroacetic acid (TCA), washed twice with TCA and the pellets resuspended in 50 μl 1M Tris-HCl pH 8.0 before counting in a beta counter to quantitate the incorporation of ^3H-glucose in acid phosphatase.

RUGT [2] = molecular target: T1, RUGT; assay: Kinetics measurements: Km of UDP-glucose and acid phosphatase for RUGT; assay type: biochemical; details: in the presence of 5 μM UDP-glucose; read-out: apparent Km for acid phosphatase
Description: Acid phosphatase was the major substrate glycoprotein used to determine RUGT activity in this study. […] Soybean agglutinin (Sigma) was denatured by heating at 100° C. for 15 minutes. Bovine thyroglobulin (Sigma) was denatured with 8M urea and dialyzed against ddH2O. […] Reactions were either analyzed by SDS-PAGE followed by fluorography using Amplify (Amersham Life Science Inc.) or precipitated with ice-cold 10% trichloroacetic acid (TCA), washed twice with TCA and the pellets resuspended in 50 μl 1M Tris-HCl pH 8.0 before counting in a beta counter to quantitate the incorporation of ^3H-glucose in acid phosphatase.
Glucosylation reactions were incubated at 37° C. and TCA precipitated at various times up to 120 minutes to determine the rate of incorporation of ^3H-glucose in acid phosphatase.

T1 sequence (Q9JLA3 43-1547 limits assumed): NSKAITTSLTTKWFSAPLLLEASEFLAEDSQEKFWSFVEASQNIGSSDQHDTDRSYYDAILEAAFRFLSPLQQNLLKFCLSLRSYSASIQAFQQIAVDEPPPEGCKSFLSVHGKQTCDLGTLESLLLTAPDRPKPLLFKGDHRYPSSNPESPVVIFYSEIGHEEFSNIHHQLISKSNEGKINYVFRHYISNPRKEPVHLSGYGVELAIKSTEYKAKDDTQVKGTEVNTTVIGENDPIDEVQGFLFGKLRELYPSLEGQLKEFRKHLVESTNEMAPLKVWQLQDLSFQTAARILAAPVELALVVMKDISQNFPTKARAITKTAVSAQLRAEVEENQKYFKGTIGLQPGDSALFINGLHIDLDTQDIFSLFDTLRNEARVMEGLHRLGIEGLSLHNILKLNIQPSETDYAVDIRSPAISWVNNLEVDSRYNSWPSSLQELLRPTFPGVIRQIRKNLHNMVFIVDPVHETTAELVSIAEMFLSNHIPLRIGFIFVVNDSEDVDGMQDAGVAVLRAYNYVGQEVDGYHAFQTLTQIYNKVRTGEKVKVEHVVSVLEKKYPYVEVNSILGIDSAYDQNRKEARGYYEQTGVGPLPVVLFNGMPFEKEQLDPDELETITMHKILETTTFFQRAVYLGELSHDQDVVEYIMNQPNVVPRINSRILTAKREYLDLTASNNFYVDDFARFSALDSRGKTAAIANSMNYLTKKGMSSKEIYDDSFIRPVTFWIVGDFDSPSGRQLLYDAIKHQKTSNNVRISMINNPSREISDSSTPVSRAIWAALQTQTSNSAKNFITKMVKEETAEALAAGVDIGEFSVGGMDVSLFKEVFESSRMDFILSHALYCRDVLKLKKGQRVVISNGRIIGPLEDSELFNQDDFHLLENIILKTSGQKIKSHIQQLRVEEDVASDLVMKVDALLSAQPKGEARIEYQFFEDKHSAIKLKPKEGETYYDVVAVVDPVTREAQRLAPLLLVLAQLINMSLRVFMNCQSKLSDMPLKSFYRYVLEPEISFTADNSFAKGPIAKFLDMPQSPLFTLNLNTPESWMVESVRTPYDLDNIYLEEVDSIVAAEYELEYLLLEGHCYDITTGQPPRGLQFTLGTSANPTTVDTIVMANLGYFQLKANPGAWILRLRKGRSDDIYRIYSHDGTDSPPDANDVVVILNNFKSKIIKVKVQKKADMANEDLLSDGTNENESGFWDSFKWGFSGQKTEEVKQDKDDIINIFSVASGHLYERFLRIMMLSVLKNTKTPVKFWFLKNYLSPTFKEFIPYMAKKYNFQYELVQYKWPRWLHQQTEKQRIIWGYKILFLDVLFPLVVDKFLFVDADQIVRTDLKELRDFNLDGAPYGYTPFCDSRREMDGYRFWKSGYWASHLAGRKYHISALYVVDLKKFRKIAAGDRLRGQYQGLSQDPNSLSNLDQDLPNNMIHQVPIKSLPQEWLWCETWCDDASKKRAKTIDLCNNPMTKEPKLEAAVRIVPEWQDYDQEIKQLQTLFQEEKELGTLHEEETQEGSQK

Molecule	RUGT activity towards denatured versus native substrate (RUGT [1])	activity relative to the wild-type enzyme (incorporation of 3H-glucose) (acid phosphatase)	other results
soybean agglutinin: soybean agglutinin (Sigma), denatured by heating at 100° C.; acceptor substrate [reference compound]	better substrates than the native proteins		
N1433A: recombinant rat UGGT (RUGT) mutant, N1433 mutated to alanine		approximately 2%	
Q1429A: recombinant rat UGGT (RUGT) mutant, Q1429 mutated to alanine		~20%	
D1334A: recombinant rat UGGT (RUGT) mutant, D1334 mutated to alanine		no activity at all	
D1336A: recombinant rat UGGT (RUGT) mutant, D1336 mutated to alanine		no activity at all	
bovine thyroglobulin: bovine thyroglobulin (Sigma), denatured with 8M urea; acceptor substrate [reference compound]	better substrates than the native proteins		
B1	greater activity towards reduced unfolded RNase B than towards the native protein		
B2			incorporation of 3H-glucose on a molar basis relative to RNase B (RUGT [1]; assuming MW of 14 kDa for RNase B): 130 ×; incorporation of 3H-glucose on a molar basis relative to SBA (RUGT [1]; assuming MW of 31 kDa for SBA): 100 ×; incorporation of 3H-glucose on a molar basis relative to Tg (RUGT [1]; assuming MW of 303 kDa for Tg): 4 times; Km (RUGT [2]): 0.3 µM

From patent US6399321B1 (National Research Council of Canada, priority 1999, dated 2002)
